Test results reported in patent US20140274782A1, “AFFINITY REAGENTS AND METHODS FOR DETECTION, PURIFICATION, AND PROTEOMIC ANALYSIS OF METHYLATED PROTEINS” (The Board of Trustees of the Leland Stanford Junior …, priority 2013, published 2014).

T1: G9a and GLP (Homo sapiens, UniProt Q96KQ7+Q9H9B1)
T1 sequence (Q96KQ7 2-1210 limits assumed): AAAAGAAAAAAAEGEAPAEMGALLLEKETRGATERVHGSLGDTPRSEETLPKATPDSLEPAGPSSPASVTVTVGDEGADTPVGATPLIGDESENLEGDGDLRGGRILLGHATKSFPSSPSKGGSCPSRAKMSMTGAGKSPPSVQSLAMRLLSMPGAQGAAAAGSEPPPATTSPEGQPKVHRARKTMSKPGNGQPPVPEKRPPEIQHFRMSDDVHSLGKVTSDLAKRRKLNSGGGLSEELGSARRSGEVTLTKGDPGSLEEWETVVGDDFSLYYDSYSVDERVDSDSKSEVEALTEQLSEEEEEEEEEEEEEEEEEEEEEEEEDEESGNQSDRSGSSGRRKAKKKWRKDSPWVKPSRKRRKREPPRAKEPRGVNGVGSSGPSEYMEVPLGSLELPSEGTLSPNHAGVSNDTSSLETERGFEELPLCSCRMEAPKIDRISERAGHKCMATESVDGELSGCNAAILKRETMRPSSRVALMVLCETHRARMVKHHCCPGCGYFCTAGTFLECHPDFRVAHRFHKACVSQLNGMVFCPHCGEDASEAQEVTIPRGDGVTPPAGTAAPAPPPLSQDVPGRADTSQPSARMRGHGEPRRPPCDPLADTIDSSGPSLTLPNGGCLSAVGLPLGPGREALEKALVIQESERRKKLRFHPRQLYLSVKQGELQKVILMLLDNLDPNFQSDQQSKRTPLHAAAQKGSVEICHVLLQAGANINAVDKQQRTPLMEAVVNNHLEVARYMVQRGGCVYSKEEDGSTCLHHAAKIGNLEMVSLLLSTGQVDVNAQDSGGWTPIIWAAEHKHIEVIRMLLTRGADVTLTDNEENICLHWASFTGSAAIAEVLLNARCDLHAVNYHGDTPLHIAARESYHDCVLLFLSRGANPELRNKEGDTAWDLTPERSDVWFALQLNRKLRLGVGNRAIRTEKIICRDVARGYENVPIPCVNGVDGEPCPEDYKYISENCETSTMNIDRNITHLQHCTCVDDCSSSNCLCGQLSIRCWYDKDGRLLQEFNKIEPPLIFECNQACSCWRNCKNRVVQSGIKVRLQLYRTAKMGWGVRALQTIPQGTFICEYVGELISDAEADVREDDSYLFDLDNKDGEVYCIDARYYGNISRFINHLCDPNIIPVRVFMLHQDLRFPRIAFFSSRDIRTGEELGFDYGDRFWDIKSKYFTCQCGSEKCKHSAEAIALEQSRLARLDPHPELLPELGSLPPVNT
T1 sequence (Q9H9B1 2-1298 limits assumed): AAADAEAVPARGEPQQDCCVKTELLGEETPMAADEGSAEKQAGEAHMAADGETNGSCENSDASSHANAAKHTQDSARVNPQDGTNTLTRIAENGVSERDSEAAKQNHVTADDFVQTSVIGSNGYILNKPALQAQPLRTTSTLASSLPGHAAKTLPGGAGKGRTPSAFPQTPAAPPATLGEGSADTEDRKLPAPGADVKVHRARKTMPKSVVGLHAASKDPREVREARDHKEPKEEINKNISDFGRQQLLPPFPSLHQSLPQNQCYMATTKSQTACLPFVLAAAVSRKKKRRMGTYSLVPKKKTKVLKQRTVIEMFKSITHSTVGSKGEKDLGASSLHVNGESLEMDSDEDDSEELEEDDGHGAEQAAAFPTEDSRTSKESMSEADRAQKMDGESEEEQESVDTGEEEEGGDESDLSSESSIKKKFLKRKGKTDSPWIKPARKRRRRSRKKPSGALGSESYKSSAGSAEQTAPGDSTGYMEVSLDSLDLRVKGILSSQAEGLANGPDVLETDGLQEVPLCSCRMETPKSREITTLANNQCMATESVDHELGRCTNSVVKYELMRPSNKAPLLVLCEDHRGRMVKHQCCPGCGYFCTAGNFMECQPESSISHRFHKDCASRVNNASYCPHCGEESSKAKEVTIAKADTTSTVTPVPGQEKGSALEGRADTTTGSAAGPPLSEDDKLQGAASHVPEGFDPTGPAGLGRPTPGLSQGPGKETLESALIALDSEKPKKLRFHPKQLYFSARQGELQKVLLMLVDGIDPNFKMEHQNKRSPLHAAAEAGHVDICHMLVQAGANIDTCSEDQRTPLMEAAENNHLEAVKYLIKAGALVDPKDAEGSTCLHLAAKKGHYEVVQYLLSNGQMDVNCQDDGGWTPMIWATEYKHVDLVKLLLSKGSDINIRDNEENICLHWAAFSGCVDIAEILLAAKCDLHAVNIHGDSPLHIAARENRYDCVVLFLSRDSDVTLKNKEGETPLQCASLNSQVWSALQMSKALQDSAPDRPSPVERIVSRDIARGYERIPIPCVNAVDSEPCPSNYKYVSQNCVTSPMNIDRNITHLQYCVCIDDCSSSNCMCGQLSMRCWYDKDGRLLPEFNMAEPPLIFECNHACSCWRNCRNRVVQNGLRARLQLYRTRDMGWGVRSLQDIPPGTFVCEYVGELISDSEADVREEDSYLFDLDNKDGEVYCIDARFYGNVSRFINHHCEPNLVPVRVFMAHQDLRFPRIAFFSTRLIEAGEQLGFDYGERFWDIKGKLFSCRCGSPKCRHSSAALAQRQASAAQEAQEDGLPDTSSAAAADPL


What was measured:
G9a and GLP = target: T1, G9a and GLP; experiment: Triple SILAC pull-down after UNC0638 treatment of 293T cells, DMSO/UNC0638 ratio of protein captured by 3×MBT; type: cell-based; parameters: cells were treated for 24 hours with UNC0638 at 2.5 μM or DMSO vehicle control; endogenous in cells; host or cells: HEK 293T; settings: for Relative to UNC0638 UNC Heavy: UNC0638 in heavy SILAC media; for Relative to UNC0638 UNC Light: UNC0638 in light SILAC media; for Relative to UNC0638 Average: average of UNC Light and UNC Heavy experiments;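 for all read-outs here: mass spectrometry (Q-Exactive) SILAC quantitation, DMSO/UNC0638 ratio computed after subtracting 3×MBTD355N mutant pull-down background, only proteins with at least twofold 3×MBT over mutant signal considered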
3×MBT domain of L3MBTL1 = experiment: Triple SILAC pull-down, 3xMBT/3xMBTD355N ratio (cytoplasmic, nuclear and chromatin fractions of 293T cells); type: binding, human; settings: for 3xMBT/D355N UNC Heavy: experiment with UNC0638 in heavy SILAC media; for 3xMBT/D355N UNC Light: experiment with UNC0638 in light SILAC media;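 for all read-outs here: proteins quantified with MaxQuant, requiring at least two unique peptides and quantification in both label directions, normalized to the mean of proteins from a digested loading control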
[1] = SILAC ratio DMSO/UNC0638 of protein pulled down with 3xMBT
[2] = SILAC ratio, pull-down 3xMBT vs 3xMBTD355N
[3] = SILAC ratio DMSO relative to UNC0638, pull-down with 3xMBT, all values in log base 2
[4] = SILAC ratio 3xMBT vs 3xMBTD355N pull-down, 293T cells, all values in log base 2

Row | Molecule | Relative to UNC0638 UNC Heavy (G9a and GLP; [1]) | Relative to UNC0638 UNC Light (G9a and GLP; [1]) | Relative to UNC0638 Average (G9a and GLP) | 3xMBT/D355N UNC Heavy (3×MBT domain of L3MBTL1; [2]) | 3xMBT/D355N UNC Light (3×MBT domain of L3MBTL1; [2]) | Relative to UNC0638 UNC Heavy (G9a and GLP; [3]) | Relative to UNC0638 UNC Light (G9a and GLP; [3]) | Relative to UNC0638 Average (G9a and GLP; all values in log base 2) | 3xMBT/D355N UNC Heavy (3×MBT domain of L3MBTL1; [4]) | 3xMBT/D355N UNC Light (3×MBT domain of L3MBTL1; [4])
1 | GAPDHS (protein, UniProt O14556 1-408, looked up) Glyceraldehyde-3-phosphate …: MSKRDIVLTNVTVVQLLRQPCPVTRAPPPPEPKAEVEPQPQPEPTPVREEIKPPPPPLPPHPATPPPKMVSVARELTVGINGFGRIGRLVLRACMEKGVKVVAVNDPFIDPEYMVYMFKYDSTHGRYKGSVEFRNGQLVVDNHEISVYQCKEPKQIPWRAVGSPYVVESTGVYLSIQAASDHISAGAQRVVISAPSPDAPMFVMGVNENDYNPGSMNIVSNASCTTNCLAPLAKVIHERFGIVEGLMTTVHSYTATQKTVDGPSRKAWRDGRGAHQNIIPASTGAAKAVTKVIPELKGKLTGMAFRVPTPDVSVVDLTCRLAQPAPYSAIKEAVKAAAKGPMAGILAYTEDEVVSTDFLGDTHSSIFDAKAGIALNDNFVKLISWYDNEYGYSHRVVDLLRYMFSRDK | 3.21 log base 2 | −2.20 log base 2 | 0.50 log base 2 | 3.31 log base 2 | 1.73 log base 2 |  |  |  |  | 
2 | CGGBP1 (protein, UniProt Q9UFW8 1-167, looked up) CGG triplet repeat-binding …: MERFVVTAPPARNRSKTALYVTPLDRVTEFGGELHEDGGKLFCTSCNVVLNHVRKSAISDHLKSKTHTKRKAEFEEQNVRKKQRPLTASLQCNSTAQTEKVSVIQDFVKMCLEANIPLEKADHPAVRAFLSRHVKNGGSIPKSDQLRRAYLPDGYENENQLLNSQDC |  |  |  |  |  | 0.05 log base 2 | 0.12 log base 2 | 0.09 log base 2 | 2.44 log base 2 | 2.49 log base 2
3 | PRMT3 (protein, UniProt O60678 2-531, looked up) Protein arginine …: CSLASGATGGRGAVENEEDLPELSDSGDEAAWEDEDDADLPHGKQQTPCLFCNRLFTSAEETFSHCKSEHQFNIDSMVHKHGLEFYGYIKLINFIRLKNPTVEYMNSIYNPVPWEKEEYLKPVLEDDLLLQFDVEDLYEPVSVPFSYPNGLSENTSVVEKLKHMEARALSAEAALARAREDLQKMKQFAQDFVMHTDVRTCSSSTSVIADLQEDEDGVYFSSYGHYGIHEEMLKDKIRTESYRDFIYQNPHIFKDKVVLDVGCGTGILSMFAAKAGAKKVLGVDQSEILYQAMDIIRLNKLEDTITLIKGKIEEVHLPVEKVDVIISEWMGYFLLFESMLDSVLYAKNKYLAKGGSVYPDICTISLVAVSDVNKHADRIAFWDDVYGFKMSCMKKAVIPEAVVEVLDPKTLISEPCGIKHIDCHTTSISDLEFSSDFTLKITRTSMCTAIAGYFDIYFEKNCHNRVVFSTGPQSTKTHWKQTVFLLEKPFSVKAGEALKGKVTVHKNKKDPRSLTVTLTLNNSTQTYGLQ |  |  |  |  |  | 0.13 log base 2 | 0.07 log base 2 | 0.10 log base 2 | 1.71 log base 2 | 2.05 log base 2
4 | MCM5 (protein, UniProt P33992 2-734, looked up) DNA replication licensing …: SGFDDPGIFYSDSFGGDAQADEGQARKSQLQRRFKEFLRQYRVGTDRTGFTFKYRDELKRHYNLGEYWIEVEMEDLASFDEDLADYLYKQPAEHLQLLEEAAKEVADEVTRPRPSGEEVLQDIQVMLKSDASPSSIRSLKSDMMSHLVKIPGIIIAASAVRAKATRISIQCRSCRNTLTNIAMRPGLEGYALPRKCNTDQAGRPKCPLDPYFIMPDKCKCVDFQTLKLQELPDAVPHGEMPRHMQLYCDRYLCDKVVPGNRVTIMGIYSIKKFGLTTSRGRDRVGVGIRSSYIRVLGIQVDTDGSGRSFAGAVSPQEEEEFRRLAALPNVYEVISKSIAPSIFGGTDMKKAIACLLFGGSRKRLPDGLTRRGDINLLMLGDPGTAKSQLLKFVEKCSPIGVYTSGKGSSAAGLTASVMRDPSSRNFIMEGGAMVLADGGVVCIDEFDKMREDDRVAIHEAMEQQTISIAKAGITTTLNSRCSVLAAANSVFGRWDETKGEDNIDFMPTILSRFDMIFIVKDEHNEERDVMLAKHVITLHVSALTQTQAVEGEIDLAKLKKFIAYCRVKCGPRLSAEAAEKLKNRYIIMRSGARQHERDSDRRSSIPITVRQLEAIVRIAEALSKMKLQPFATEADVEEALRLFQVSTLDAALSGTLSGVEGFTSQEDQEMLSRIEKQLKRRFAIGSQVSEHSIIKDFTKQKYPEHAIHKVLQLMLRRGEIQHRMQRKVLYRLK |  |  |  |  |  | 0.18 log base 2 | 0.03 log base 2 | 0.10 log base 2 | 2.23 log base 2 | 2.79 log base 2
5 | THYN1 (protein, UniProt Q9P016 1-225, looked up) Thymocyte nuclear protein 1: MSRPRKRLAGTSGSDKGLSGKRTKTENSGEALAKVEDSNPQKTSATKNCLKNLSSHWLMKSEPESRLEKGVDVKFSIEDLKAQPKQTTCWDGVRNYQARNFLRAMKLGEEAFFYHSNCKEPGIAGLMKIVKEAYPDHTQFEKNNPHYDPSSKEDNPKWSMVDVQFVRMMKRFIPLAELKSYHQAHKATGGPLKNMVLFTRQRLSIQPLTQEEFDFVLSLEEKEPS |  |  |  |  |  | −0.01 log base 2 | 0.18 log base 2 | 0.09 log base 2 | 2.42 log base 2 | 2.85 log base 2
